Assay results from publication PMC3150277, “Crystal Structure of PrgI-SipD: Insight into a Secretion Competent State of the Type Three Secretion System Needle Tip and its Interaction with Host Ligands” (PLoS Pathogens, 2011).

Biological target: T1, SipD 127-343, as it stands in the PrgI-SipDΔD1 fusion protein (S. enterica serovar typhimurium strain …, UniProt Q56026 127-343)
T1 construct: SipD of S. enterica serovar typhimurium strain SL1344, amino acids 127 to 343; In the crystal it is joined on one chain, C-terminal of PrgI and the linker Gly-Gly-Ser-Gly-Gly; also called SipDΔD1 (in the fusion); source: E. coli BL21(DE3), purified as part of the PrgI-SipDΔD1 fusion protein
T1 sequence: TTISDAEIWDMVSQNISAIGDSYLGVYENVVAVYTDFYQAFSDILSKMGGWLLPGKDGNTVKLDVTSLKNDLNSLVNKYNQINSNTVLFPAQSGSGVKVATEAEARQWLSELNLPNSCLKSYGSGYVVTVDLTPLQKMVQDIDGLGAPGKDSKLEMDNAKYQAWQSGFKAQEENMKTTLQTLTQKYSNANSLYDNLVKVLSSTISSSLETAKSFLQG
Experiment: crystal structure; PrgI-SipDΔD1 fusion protein, X-ray, 2.4 Å apo and 2.19 Å soaked with deoxycholate; two copies in the asymmetric unit
Conditions: both partners purified

B1: PrgI, wildtype, as it stands in the PrgI-SipDΔD1 fusion protein (natural protein)
chain: MATPWSGYLDDVSAKFDTGVDNLQTQVTEALDKLAAKPSDPALLAAYQSKLSEYNLYRNAQSNTVKVFKDIDAAIIQNFR
notes: wildtype PrgI of S. enterica serovar typhimurium strain SL1344; In the crystal it is joined on one chain through Gly-Gly-Ser-Gly-Gly to SipD 127-343; also called needle subunit PrgI; source: E. coli BL21(DE3), purified as part of the PrgI-SipDΔD1 fusion protein; not shown: His-tag, N-terminal, cleaved
**Q.** Does B1 bind?
**A.** binds
